Measurements as given in patent publication US20080207488A1, “Method for Detecting Peptides Comprising a Cross-B Structure” (priority 2005, published 2008).
One block for each molecule: values may come before it.

Key:
[1] = Thioflavin T fluorescence; type: physicochemical
Method: Fluorescence of ThT-protein/peptide adducts was measured as follows. […] Fluorescence was measured at 485 nm upon excitation at 435 nm. Background signals from buffer, buffer with ThT and protein/peptide solution without ThT were subtracted from corresponding measurements with protein solution incubated with ThT. […] Fluorescence was measured in triplicate on a Hitachi F-4500 fluorescence spectrophotometer (Ltd., Tokyo, Japan).
Formulated protein therapeutics were obtained from the local hospital pharmacy and were used as supplied by the manufacturers. […] Lyophilized therapeutics were dissolved according to the manufacturers recommendations. […] Enhancement in fluorescence of ThT and Congo red was measured with all formulated protein therapeutics. […]
To prepare structurally altered ovalbumin (OVA) with amyloid cross-β structure conformation, purified OVA (Sigma, A-7641, lot 071k7094) was heated to 85° C. […] Native OVA (nOVA) and heat-denatured OVA (dOVA) were tested in the ThT fluorescence assay and in the Plg-activation assay. In the fluorescence assay and in the Plg-activation assay, 25 and 100 μg ml^−1 nOVA and dOVA were tested, respectively. […] In the ThT-fluorescence assay 25 μg ml^−1 nMSA and alkyl-MSA were tested, and in the Plg-activation assay 100 μg ml^−1 was tested. The presence of aggregates or fibrils was analyzed using TEM. […]

Balb/c mice [2] = experiment: Immunization of Balb/c mice with ovalbumin and amyloid-like ovalbumin; type: in vivo; settings: without adjuvant
Method: Eight to ten weeks old female Balb/c mice are immunized with OVA according to two immunization regimes (Central Animal Laboratories, Utrecht University, The Netherlands). Pre-immune serum was collected prior to the immunizations. In one regime two groups of five mice were subcutaneously injected five consecutive days per week, for three consecutive weeks. Doses comprised 10 μg native OVA or heat-denatured OVA for each injection. Alternatively, according to the second protocol, three groups of five mice were injected once intraperitoneally with doses comprising 5 μg nOVA, 5 μg OVA or 5 μg native OVA mixed 1:1 with complete Freund's adjuvant (CFA). Each week, blood was taken. After three weeks, a second dose was given. Incomplete Freund's adjuvant (IFA) was used instead of CFA. Blood was taken after one week after the start of the immunization. Antibody titers in sera were determined and sera were analyzed for the presence of cross-β structure conformation specific antibodies. For this purpose, nOVA was coated onto wells of 96-wells ELISA plates and incubated with dilution series of sera. Sera of the groups of five mice were pooled prior to the analyses. Plates were washed and subsequently incubated with peroxidase-conjugated rabbit anti-mouse immunoglobulins (RAMPO, P0260, DAKOCytomation, Glostrup, Denmark). Plates were subsequently developed with tetramethylbenzidine (TMB) substrate. […]

[3] = target: T1, human fibronectin finger 4,5 (Fn F4,5) fragment (Homo sapiens, UniProt P02751); experiment: ELISA, binding of fibronectin F4,5 to coated (mis)folded proteins; settings: coated protein, FIG. 7D-H
T1 construct: human fibronectin finger 4,5 (Fn F4,5) fragment; made in house; host or cells: HEK293E cells, transient transfection, protein purified from the medium
T1 sequence (P02751 182-276 limits assumed): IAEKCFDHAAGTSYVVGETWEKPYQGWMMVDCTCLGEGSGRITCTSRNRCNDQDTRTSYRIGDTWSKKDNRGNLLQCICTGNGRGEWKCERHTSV
Method: (§1) The plates were blocked using Blocking reagent (Roche 1112589). A dilution series of the protein of interest was applied to the coated proteins and wells were subsequently washed using TBS-T (50 mM Tris pH 7.3, 150 mM NaCl and 0.1% Tween20). Bound protein is detected by the FLAG-tag using 1:3000 anti-FLAG-HRP (Sigma A-8592) in PBS-T, or by 1:1000 Ni-NTA-HRP (Qiagen 34530) in PBS-T. The HRP reaction Is performed using the TMB substrate (Biosource 4501103 or Tebu Bio 101TMB100-500), stopped using 10% H2SO4 and absorbance was measured at 450 nm.

[4] = tested on: human tissue-type plasminogen activator finger EGF (tPA F-EGF) fragment; experiment: ELISA, binding of tPA F-EGF to coated (mis)folded proteins; settings: coated protein, FIG. 7A, I
Sequence of human tissue-type plasminogen activator finger EGF (tPA F-EGF) fragment (P00750 39-120 limits assumed): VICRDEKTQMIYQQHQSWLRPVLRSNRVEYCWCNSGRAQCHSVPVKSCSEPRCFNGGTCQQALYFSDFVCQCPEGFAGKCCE
Method: as §1

Balb/c mice [5] = experiment: Immunization of mice with β2gpi preparations, titers against native human β2gpi; type: in vivo; settings: four injections of 15 μg antigen
Method: Female BalB/C cAnNHSd (Harlan) 7-9 weeks were housed in filtertop cages in groups of 5 mice per group. After approximately one week of adjustment to the environment, pre-immune sera were drawn. On the start of the first week, mice were given either 100 μl plasma (150 μg/ml) β2-Glycoprotein 1,100 μl alkyl-β2-Glycoprotein I (150 μg/ml) or 100 μl of a mixture of 150 μg/ml of 82-Glycoprotein I with 9.33 μM cardiolipin (CL-β2gpi). This latter sample was prepared by pre-incubating 400 μg/ml of 62-GPI with 25 μM of cardiolipin vesicles for at least 10 minutes at RT after mixing the sample by pipetting; afterwards samples were diluted to 150 μg/ml. […]
Sera were analyzed for antibodies against unmodified native (coated) β2-GPI. […] Antibody titers were determined by adding pooled sera of each experimental group (n=5) in three-fold serial dilutions (starting from 1:30, 50 μl/well) to plates coated with native human β2gpi. […] The plates were stained for approximately 5 minutes using 100 μL/well of TMB substrate (Biosource Europe, Nivelles, Belgium), the reaction was stopped with 50 μL/well of 2 M H2SO4 and read at 450 nm on a Spectramax340 microplate reader. The absorbance values were plotted against log dilution. […] For comparison, the dilution that yielded a residual absorbance after background subtraction of 0.1 was arbitrarily taken as the titer of the various sera.

Balb/c mice [6] = experiment: Immunization of mice with β2gpi preparations, serum binding to murine β2gpi; type: in vivo; settings: 100-fold diluted sera
Method: Female BalB/C cAnNHSd (Harlan) 7-9 weeks were housed in filtertop cages in groups of 5 mice per group. After approximately one week of adjustment to the environment, pre-immune sera were drawn. On the start of the first week, mice were given either 100 μl plasma (150 μg/ml) β2-Glycoprotein 1,100 μl alkyl-β2-Glycoprotein I (150 μg/ml) or 100 μl of a mixture of 150 μg/ml of 82-Glycoprotein I with 9.33 μM cardiolipin (CL-β2gpi). This latter sample was prepared by pre-incubating 400 μg/ml of 62-GPI with 25 μM of cardiolipin vesicles for at least 10 minutes at RT after mixing the sample by pipetting; afterwards samples were diluted to 150 μg/ml. […] All dilutions were made freshly in TBS and kept on ice. Injections were given intravenously in the tail veins of the mice and given on Mondays and Fridays of the first and third week. Blood was drawn three days prior to the experiment, and on Wednesdays of week 2 and 4 by puncture of vena Saphena. Blood was collected in Easycollect tubes, with Z serum clot activator. Sera were prepared by centrifugation in a tabletop centrifuge, with a rotor diameter of 7 cm, at 3800 rpm for 10 minutes (slow start and stop) and stored at −20° C. before analysis.
In this way, it was determined whether immunizations of mice with human β2gpi elicits a humoral auto-immune response against murine β2gpi.

affinity of fibronectin F4,5 (detection anti-FLAG HRP) [3]: clear difference in binding affinity | binding of tPA F-EGF [4]: Much lower binding
B1: dOVA: ovalbumin heat-denatured at 85° C., amyloid-like (protein)
chain: GSIGAASMEFCFDVFKELKVHHANENIFYCPIAIMSALAMVYLGAKDSTRTQINKVVRFDKLPGFGDSIEAQCGTSVNVHSSLRDILNQITKPNDVYSFSLASRLYAEERYPILPEYLQCVKELYRGGLEPINFQTAADQARELINSWVESQTNGIIRNVLQPSSVDSQTAMVLVNAIVFKGLWEKAFKDEDTQAMPFRVTEQESKPVQMMYQIGLFRVASMASEKMKILELPFASGTMSMLVLLPDEVSGLEQLESIINFEKLTEWTSSNVMEERKIKVYLPRMKMEEKYNLTSVLMAMGITDVFSSSANLSGISSAESLKISQAVHAAHAEINEAGREVVGSAEAGVDAASVSEEFRADHPFLFCIKHIATNAVLFFGRCVSP
ThT fluorescence enhancement of native and denatured proteins ([1]; 25 μg ml^−1): filtration through a 0.2 μm filter does not reduce the enhancement of ThT fluorescence | anti-nOVA antibody titers in pooled sera (Balb/c mice [2]): higher antibody titers

B2: alkyl-β2gpi: reduced and alkylated human β2-glycoprotein I (protein, UniProt P02749 20-345, looked up)
Beta-2-glycoprotein 1: GRTCPKPDDLPFSTVVPLKTFYEPGEEITYSCKPGYVSRGGMRKFICPLTGLWPINTLKCTPRVCPFAGILENGAVRYTTFEYPNTISFSCNTGFYLNGADSAKCTEEGKWSPELPVCAPIICPPPSIPTFATLRVYKPSAGNNSLYRDTAVFECLPQHAMFGNDTITCTTHGNWTKLPECREVKCPFPSRPDNGFVNYPAKPTLYYKDKATFGCHDGYSLDGPEEIECTKLGNWSAMPSCKASCKVPVKKATVVYQGERVKIQEKFKNGMLHGDKVSFFCKNKEKKCSYTEDAQCIDGTIEVPKCFKEHSSLAFWKTDASDVKPC
modifications: reduced and alkylated
notes: reduced and alkylated human β2-glycoprotein I
Thioflavin T fluorescence of modified β2gpi ([1]; compared with native β2gpi): enhanced Thioflavin T fluorescence | humoral immune response compared to native β2gpi (Balb/c mice [5]): far higher humoral immune responses | titers against mouse self-β2gpi (Balb/c mice [6]): higher titers against mouse self-β2gpi
